Reference: patent publication US20240279288A1, “APPLICATION OF PLANT JAZ PROTEINS AND DERIVED POLYPEPTIDES IN PREVENTION AND TREATMENT OF HUMAN AND ANIMAL TUMORS” (ANYANG INSTITUTE OF SINO-COTTON INDUSTRY INNOVATION, priority 2021, published 2024)

Tests used:
GhHDA6 = test: CO-IP experiment with GhHDA6; format: binding, cotton
Procedure: Steps of method of CO-IP experiment: Non-denaturing lysate was added to 293T cell culture plate (Pricella, Cat. No.: CL-0005), and the cells were completely lysed at 4° C. The lysate was centrifuged at 12,000 rpm for 10 min and the supernatant was collected. The corresponding antibody was added to the obtained non-denatured protein solution, which was incubated overnight at 4° C. Pierce™ protein A/G magnetic agarose (Thermo Fisher Scientific, Inc.) were washed with lysis buffer, followed by addition pre-treated beads to the cell lysate, and incubation at room temperature for 2 hours. The mixture was centrifuged at 4° C., 2,500 rpm for 5 min with supernatant removed, and the agarose beads were washed 5 times with 1 ml of lysis buffer. An appropriate amount of protein loading buffer was added to the pellet, and the sample was incubated in water bath at 100° C. for 10 min. The band of interest was detected by Western blotting.

GhNINJA = test: Luciferase experiment in tobacco leaves with GhNINJA; format: binding, cotton; conditions: no fluorescence on the control
Excerpt: Method of the luciferase experiment: GhJAZ1 (corresponding encoding gene sequence set forth in SEQ ID No. 39) was subcloned into pCAMBIA-CLuc vector (Chen, H., et al. “Firefly Luciferase Complementation Imaging Assay for Protein-Protein Interactions in Plants.” Plant Physiology 146.2(2008):368-376.) between KpnI and SalI cleavage sites, and the transcription factors such as GhMYC2 (corresponding encoding gene sequence set forth in SEQ ID No. 72), GhNINJA (corresponding encoding gene sequence set forth in SEQ ID No. 74), and GhCOI1 (corresponding encoding gene sequence set forth in SEQ ID No. 80) were subcloned into pCAMBIA-NLuc (Chen, H., et al. “Firefly Luciferase Complementation Imaging Assay for Protein-Protein Interactions in Plants.” Plant Physiology 146.2(2008):368-376.) between KpnI and SalI cleavage sites, respectively. […] Luciferase substrates were applied at the infected leaves before taking images and placed in a dark room for at least 6 min to quench fluorescence, followed by observation on the Nightowl-II LB983 instrument, using IndigoBasic software under the luciferase-5 min setting conditions.

[1] = tested on: normal breast epithelial cells MCF10A; test: Apoptosis detection (Annexin V-FITC/PI), MCF10A; format: cell-based; conditions: 0.691 μM, 24 h, vs PBS
Procedure: Apoptosis detection: cells were collected in 1.5 EP tubes and centrifuged at 300 g for 5 min, with the supernatant discarded, followed by collecting the cells, washing with PBS and resuspending. 1×10^5 resuspended cells were taken and centrifuged at 300 g for 5 min, with the supernatant discarded. The cells were washed with PBS, resuspended by adding 500 μl of diluted 1×Annexin V Binding Buffer working solution, and then a staining solution of 5 μL of Annexin V-FITC and 5 μL of propidium iodide (PI) were added and mixed well by vortex, followed by incubation at room temperature in the dark for 15-20 min, and detection on the instrument. Specifically, the Annexin V-FITC/PI fluorescent dual staining cell apoptosis detection kit (Wuhan Pricella Life Science & Technology Co., Ltd., Cat. No.: P-CA-201) was used.

Chain of GhHDA6 (as listed by the source): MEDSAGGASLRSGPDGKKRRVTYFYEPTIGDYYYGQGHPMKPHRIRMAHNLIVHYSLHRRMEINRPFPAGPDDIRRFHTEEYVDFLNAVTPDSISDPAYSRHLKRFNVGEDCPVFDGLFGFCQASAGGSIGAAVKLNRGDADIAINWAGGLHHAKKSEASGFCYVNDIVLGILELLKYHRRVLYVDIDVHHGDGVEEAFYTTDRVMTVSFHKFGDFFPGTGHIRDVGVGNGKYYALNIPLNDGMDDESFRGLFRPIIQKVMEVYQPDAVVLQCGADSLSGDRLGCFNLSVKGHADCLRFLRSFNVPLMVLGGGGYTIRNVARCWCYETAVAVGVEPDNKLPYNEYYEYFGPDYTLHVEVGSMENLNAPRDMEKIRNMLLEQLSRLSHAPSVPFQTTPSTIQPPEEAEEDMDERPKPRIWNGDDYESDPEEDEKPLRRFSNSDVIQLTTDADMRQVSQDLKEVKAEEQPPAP
Chain of GhNINJA (as listed by the source): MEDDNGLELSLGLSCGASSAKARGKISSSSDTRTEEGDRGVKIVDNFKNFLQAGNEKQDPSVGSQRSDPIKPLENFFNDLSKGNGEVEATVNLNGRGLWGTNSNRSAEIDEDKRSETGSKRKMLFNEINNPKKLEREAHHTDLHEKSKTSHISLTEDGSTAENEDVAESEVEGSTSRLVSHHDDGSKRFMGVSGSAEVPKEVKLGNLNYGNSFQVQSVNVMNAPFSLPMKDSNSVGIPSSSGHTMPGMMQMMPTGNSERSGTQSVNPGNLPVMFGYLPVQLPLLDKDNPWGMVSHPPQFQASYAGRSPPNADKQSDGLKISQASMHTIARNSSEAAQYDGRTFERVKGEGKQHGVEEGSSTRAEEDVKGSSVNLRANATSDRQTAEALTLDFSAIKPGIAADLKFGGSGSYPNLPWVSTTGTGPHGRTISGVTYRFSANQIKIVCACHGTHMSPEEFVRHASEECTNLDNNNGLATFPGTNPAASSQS

B1: GhJAZ1: cotton JAZ1 protein, gene number Gh_A05G0260, sequence SEQ ID No. 4; prokaryotically expressed with His tag, about 30 KD (protein)
chain: MSSCSESTAMKPARSPEKPSFAQTCNLLSQYLKEKGSFGDLSLGMTCNVEANGTPVVPPPTMNLFPLNDKSDDVCGRNGGNPKNLTSMDLFPQQAGLASKDDSPNKLEPQTAPMTIFYGGQVIVFNDFPANKAKEIMLLASNSSSQSNNSFNPIPFTSSIARSPIESSIGVPPTSKPVHPAQRAVPGDLPIARRASLHRFLEKRKDRITAKAPYQINNSAAAPSLSGDNKSWLGLAAQSP
modifications: His tag
notes: prokaryotically expressed with His tag, about 30 KD
For B1, the “interaction with GhHDA6” value (GhHDA6) was “interacts”, the “fluorescence with GhNINJA after applying luciferase substrate” value (GhNINJA) was “stronger fluorescence” and the “effect on apoptosis of normal cells (MCF10A)” value [1] was “no significant effect”.
